{"source": "a protein production outcome set (Wang et al. 2014)", "test": "label from the status in PepcDB records", "data": [{"sequence": "GSLKCILLNQAEELPIEFLPKDGVYGKGKLFDSRNMEIENFTESDILQDARRAAEAHRRARYRVQSIVRPGITLLEIVRSIEDSTRTLLKGERNNGIGFPAGMSMNSCAAHYTVNPGEQDIVLKEDDVLKIDFGTHSDGRIMDSAFTVAFKENLEPLLVAAREGTETGIKSLGVDVRVCDIGRDINEVISSYEVEIGGRMWPIRPISDLHGHSISQFRIHGGISIPAVNNRDTTRIKGDSFYAVETFATTGKGSIDDRPPCSHFVLNTYKSRKLFNKDLIKVYEFVKDSLGTLPFSPRHLDYYGLVKGGSLKSVNLLTMMGLLTPYPPLNDIDGCKVAQFEHTVYLSEHGKEVLTRGDDY", "values": [{"measurement": "protein production", "value": "not failed"}]}, {"sequence": "EPEQVIRKYTEELKVAPEEDCIICMEKLAVASGYSDMTDSKALGPMVVGRLTKCSHAFHLLCLLAMYCNGNKDGSLQCPSCKTIYGEKTGTQPWGKMEVFR", "values": [{"measurement": "protein production", "value": "not failed"}]}, {"sequence": "VSGFQRLQKPVVSQPDFRRQPVSETMQVYLKQAADPGRDVGLYWMATDFENRRFPGKVSPSGFQKLYRQWRNQTGWDAYVQSCRAIWNDVKYFPIPQSLDDTEDKISYVDSWMFERNYGGKRGHEGTDIMAEKNTPGYYPVVSMTDGVVTEKGWLEKGGWRIGITAPTGAYFYYAHLDSYAELEKGDPVKAGDLLGYMGDSGYGEEGTTGEFPVHLHLGIYLKEGTEEISVNPYPVLRYAENARIKCVYSR", "values": [{"measurement": "protein production", "value": "not failed"}]}, {"sequence": "MHVQEWLDTVPAAAVYAVVGLVIGLESLGIPLPGEIILVSAALLSSQHGGIDPLVLGACASAGAVIGDSIGYAIGRKGGRPLLAWLGGKFPRHFGEGHVATAERSFQKWGMWAVFFGRFVALLRIFAGPLAGVLRMPYWKFLIANVLGGIVWAGGTTAVIYYVGVVAEDWLKRFSWLGLVVAVLIGIASMLIVKRRAGKAQQTPEPVAAGE", "values": [{"measurement": "protein production", "value": "failed"}]}, {"sequence": "MTAFRQRPLRLGHRGAPLKAKENTLESFRLALEAGLDGVELDVWPTRDGVFAVRHDPDTPLGPVFQVDYADLKAQEPDLPRLEEVLALKEAFPQAVFNVELKSFPGLGEEAARRLAALLRGREGVWVSSFDPLALLALRKAAPGLPLGFLMAEDHSALLPCLGVEAVHPHHALVTEEAVAGWRKRGLFVVAWTVNEEGEARRLLALGLDGLIGDRPEVLLPLGG", "values": [{"measurement": "protein production", "value": "not failed"}]}, {"sequence": "MNMLIDISTEILMSLLFFYLFYRIMVKGTNGVIEILVEAMMFSMFVGLILYFQTRITFTTASMAVDMPMAIMGGAVAWAYFTRNSSMTTSRKSAFISLLISNEVAMAYFLTIITYPNIISHGVFYTLVHSVSSYLFIASMEIEMILSLLFLEKDSIKKIVFSGVVFSGLFNPFFMPQSNFSLYGTIYFTAVMVFFMAILFEIIAVKFDTMNFGKIVMITLFFGLMGFSAAGLFASIVFGSLITLLLFDISMMAQMAFYFYFLFRNTEIRGRPGWSYNRYSMFYVLLFSFAAEWLASASIISVVNGVNGVVPFLSNFGVGVYSGIVPAILNAIFIFGSVTNSYVFLIIMGVEMASLVIVRIGRLRWKEKNGISHSP", "values": [{"measurement": "protein production", "value": "failed"}]}, {"sequence": "MNPIVKAPTLNDLPAPPPGKTGWPWTEQNEALPEKMPDGSDWPKISIVTPSYNYGQFIEETIRSVLLQGYPNLEYIVVDGGSTDNTVTIIRKYEKYLKYWASEPDHGQTDAINKGYRYCSGDVFAWLNADDLYYDQSTLLKVINFYQKGYDLIVGECLNINADGTHFNQAITSTEKSDPTYFKKYLRYWSSGFLPQPAIFVKKEMADQCFPLSIELYYAMDFQFFLRVLNQEPKSVWIQEKLTRLRWHEDSKTMGTISRIDFHAIVPEPEVHKVALAEAENLPTWLEKIFFRIQAFDYLSLQPYINSLDNFHWLQITKTIVKRPTLAVWPLFWKIFFRSLLGEQIYKLLKRTIRTNLEHHHHHH", "values": [{"measurement": "protein production", "value": "not failed"}]}, {"sequence": "MNVVRSSAYTGVATLAKLLAALVVVKLVAVYAGPQGVGRLGQFLNLMSVLAVLAGGGISAGIVKYVAQYRDDAPALARLLSAALWYAFCAACAMALLAMAFSGAIAERLLGDASYRPLMCVLAIAQLGIALLNYMLAVINGFMDVRRLAFVQVSGAVLSVALVAWLSGRAQLHGALLALVLSQVLWLLAAVPALRRSSYFQPAMWRMRFDAEMTRQLAAFSVMTLTSTLVPQLVAILVRDHLALQFGWEQVGYWQAVSRVSDAYLLFFTTAINVYYLPKLASLRGAVALGQELRGAYRYVMPAVIVMALGVYVCRDWVTLLLFDAQFAAAAPLYGPQLLGDVVKIAAFVLSYVMLAKAMTRLLVISECIFAASYLALVYLFTAQFGLIGAMYAFAANYVLYLLFNIVVVRRYLRRTA", "values": [{"measurement": "protein production", "value": "failed"}]}, {"sequence": "MELLIRTEQLLLQNEKNWELYLSNREEEKPFDFYKDMKPFVDEAKRCADDFLELAIPWVNTERPPYLGELQLRQACDNVQMTAVSAFNGRSFYKHFLDHYQSTKYTLTRVRDFLKRKEESM", "values": [{"measurement": "protein production", "value": "not failed"}]}, {"sequence": "MKNLEKCILCGSHNIVPHWKNVRSYNVSKCLDCSFLFLHEIIDDHELENYYSQSYFMASYAKTENNLIDAANNPKITAEAKEYANLIKLHHPEAHNVGEIGCSWGYLLYNLQNFGYSAKGFELSKTTAEMGSKQLGINITSGFFETQYNQFDVLILRHVLEHVPDPQDLLEKIYDSIKKDGLFILEGPNLDSISSRLFGKNVSWVSPPDHISFPNFISLIMACEKLGFTCIHKSSRRGRGISIFHQALLNSVGLMFGGKEKAKVNLGGINEKPNNQQLSSLKSAALKIVDFLDFLSSPMQPFLKQALLEEEMLIIFKKLEHHHHHH", "values": [{"measurement": "protein production", "value": "failed"}]}, {"sequence": "MKNKIKFATIIHPDVSFFNKQEVGEGTIIYPGLIVVGRFKLGKHVILKQKCSLGNNIEIGDYSFISFNSNIDSNVMVKEGSYIEANTTILANSNIDKNTYIKEGSILYLEHHHHHH", "values": [{"measurement": "protein production", "value": "failed"}]}, {"sequence": "ALRTELGLNVSGGGKTNQYYFSAGYLNDKGIALESGYERFNLRSNVTSQMTKWLRGGVNMSFAHSLQNYPVSSDTKTSNVINAGRLMNGFYPIYQMNEDGTYKLDSEGQRMYDFGSYRPSGSMANWNLPATLPNDKSERMKDEFSGRTFLEVTFIEGLKFKTSFNFDLINYNSLDYTNPKIGPAVNTGGSSSRENDRTFSWTWNNILTYDKTLGEHHFNLLAGQEAYSYRYDVLRASRSNMALPDFPELAVGSLVTGGTGYRVDYSLVGYFLNAQYDYQSKYFFSGSYRRDGSSRFAPETRWGNFWSVGASWRIDREDFMVAASDWLSALTLKVSYGAQGNDNLGTYYASSGLYSVVSNNGENALVSDRLATPKLKWETNLNFNAGIDFSLFNNRFSGSFDFFQRRSKDLLYSRPLAPSLGYNSVDENVGELKNTGVEIDLKGTLIHTRDFMWRLGLNLTHYKNVVTDLPLKDMP", "values": [{"measurement": "protein production", "value": "failed"}]}, {"sequence": "MEDLSDVFDIYAICACCKVAPTSEGTKNEPFSPRTFRGLGNKGTLPWKCNSVDMKYFRSVTTYVDESKYEKLKWKRERYLRMEASQGGGDNTSGGDNNADKLQNVVVMGRSNWESIPKQYKPLPNRINVVLSKTLTKEDVKEKVFIIDSIDDLLLLLKKLKYYKCFIIGGAQVYRECLSRNLIKQIYFTRINGAYPCDVFFPEFDESQFRVTSVSEVYNSKGTTLDFLVYSK", "values": [{"measurement": "protein production", "value": "not failed"}]}, {"sequence": "MSFADLGLSDKVLQAVTTAGYTEPTPIQAQAIPHVLARRDVLGIAQTGTGKTAAFTLPMLTMLETGRARARMPRTLILEPTRELAAQVEENFERYGTNHKLNVALIIGGVSFADQDAKLTRGTDVLIATPGRLLDHFERGKLLLTGVELLVIDEADRMLDMGFIPDIERIVKMVPFTRQTLFFSATMPPEIERLADMFLHNPQRVEVARPASTATTIEQRLVATGAEGHEKRKVLRHLIRSASELQNGIIFCNRKRDVAQLQRSLTSHGFNAAALHGDMDQRARMAALDGFRSGEVPLLVASDVAARGLDIPAVSHVFNFDVPHHPEDYVHRIGRTGRAGRSGQAFTLASRSDERSLSAIESLIGQPIAWLDGDLASVSDEVEGDEPRRRRGSRRAKETKGGEETKSGGRSTERSAAPASESPRSENRSRGGRRPAAERSRADAPRRDPVREPEPVAVVPSAPPAPPRELAREPVRSAPERARGERRPPRRDEDGETPVGLGSHVPAFLLKPTGFGKSK", "values": [{"measurement": "protein production", "value": "failed"}]}, {"sequence": "MARPKSKTKKILFAVEIIVLLLFIGGLYVYGQLNSKLDKINQPVLDDSKIKVNQEVQDSIDSQESTLTGYTTYALFGIDHRDKNTALGGENSDTIIIASVNNDTKDVKLVSVYRDTLLNLGNDTYSKANAAYAYGEAEQAITMLNTNLDLNISEYATVNFNALTTIIDDLGGLDMDMSYAEIVHMNNYCVETSEETGKDYTPIELPDRPDDIEAVQYHYHLNGVQATSYCRIRYTASLDMGRTERQRRVIQMIVSKAKSAGLGKIFKIMDDVFPMVTTSMTKDEILQLLPTLIGYSVDDTTGFPTSYKFSNVKGSIIVPTTLETNVIELHKFLYGDEAYTPSATVKANSEKILEIVGGESSLDDKQATVEENTTNDTVIFEKNGSGWSDTSSDYGSDSDSSGGGDYSGDETDNSGGSSSGGGDYSNDGSDNSGGDSSGGEDYEGPTTPEPDYGGDDNGGGDTGGDESGGGDTGGDESGGGDIVDEGSGDDSGAAAEATGTPDAA", "values": [{"measurement": "protein production", "value": "failed"}]}, {"sequence": "MIIGLLNQKGGVGKTTLSVNLAASFARTGARVLLIDVDPQGSALDWAAAREGAPLFPVVGLPRATVHKEITQIGHNYDHIIIDGPPRVTDLARSALMASDFVLIPVQPSPYDIWAADGIVKLIDEARVYKENLKSAFVINRKIVNTAIGRDVGEALGVYPVHVLSANVAQRVIFAEAATQGKTVYEVDKQGLAAAEIEAVAAEIKELAQLEHHHHHH", "values": [{"measurement": "protein production", "value": "not failed"}]}, {"sequence": "EDFRPVVFVHGLAGSAGQFESQGMRFAANGYPAEYVKTFEYDTISWALVVETDMLFSGLGSEFGLNISQIIDPETLDKILSKSRERLIDETFSRLDRVIDEALAESGADKVDLVGHSMGTFFLVRYVNSSPERAAKVAHLILLDGVWGVDAPEGIPTLAVFGNPKALPALGLPEEKVVYNATNVYFNNMTHVQLCTSPETFAVMFEFINGYKPATT", "values": [{"measurement": "protein production", "value": "not failed"}]}, {"sequence": "MTKCGHSFCYKCIHQSLEDNNRCPKCNYVVDNIDHLYPNFLVNELILKQKQRFEEKRFKLDHSVSSTNGHRWQIFQDWLGTDQDNLDLANVNLMLELLVQKKKQLEAESHAAQLQILMEFLKVARRNKREEMSGLYSPVSEDSTVPQFEAPSPSHSSIIDSTEYSQPPGFSGSSQTKKQPWYNSTLASRRKRLTAHFEDLEQCYFSTRMSRISDDSRTASQLDEFQECLSKFTRYNSVRPLATLSYASDLYNGSSIVSSIEFDRDCDYFAIAGVTKKIKVYEYDTVIQDAVDIHYPENEMTCNSKISCISWSSYHKNLLASSDYEGTVILWDGFTGQRSKVYQEHEKRCWSVDFNLMDPKLLASGSDDAKVKLWSTNLDNSVASIEAKANVCCVKFSPSSRYHLAFGCADHCVHYYDLRNTKQPIMVFKGHRKAVSYAKFVSGEEIVSASTDSQLKLWNVGKPYCLRSFKGHINEKNFVGLASNGDYIACGSENNSLYLYYKGLSKTLLTFKFDTVKSVLDKDRKEDDTNEFVSAVCWRALPDGESNVLIAANSQGTIKVLELV", "values": [{"measurement": "protein production", "value": "failed"}]}, {"sequence": "MKLQLYVLRTVATRILGAALILMSVLQILDLLDVTSDILDRGLGMAGVGYYAALRLPRLFEQVAPIAVLAGGLFAFSQLARESAIVAMRASGISGYRIVGMAVPAAVAVMLLDALCGQVLAPRADPTLADWWRNTTPVAERKEPVPRTFRAGADLVIGANASADGRTITGVTIFRRDSKGILVEKVEAPAARYDGKAWTLEQPKTTRFAGDLSQASTAAATSWPTALRPQDVQGLFGDDSMPTAASARRALENGGSDRPESFYATHLQAAFASPFVSLVMLLLSAPVALANFRSGQGAVLLTGGLAAGLMFLVANGMLTALGESGALTPFLAVWAAPAIFGALAVRTFLALEG", "values": [{"measurement": "protein production", "value": "failed"}]}, {"sequence": "MKLSLRYVLNQFLSTNLSIFFVLFAIVSMVFFIQLAKLTSSIEISFLDLLKLYGFMLPRILIFTLPISFFISLTLALFRLSKENESIVLFTLGFSPMILAKFFLKIASLISAFMLVVALVMIPIVFELQDNFVNYKSTQVKFNYKTGEFGQKFLDWMIFIEKQDSDKYENIIMYRPKHKADDKEQLIIAKEAHVQRKDDSFAFSLNQGKMYNFEQGQSIFSGEFDTLVVNTQFNTDNLQTKKFYEYWNDLNENPQRAREFVIYTTIALFPLASTLFALCFGLVTYRYEKGYVYLGMFGVIAIYFGLLSSFSQPPILACLGIFSLSLFVSAYCFKKMILSRY", "values": [{"measurement": "protein production", "value": "failed"}]}]}
